From PMC10957929
Changes are numbered by the printed parent chain.

What was measured:
[1] = biological target: T1, GST-DRG9Nip (F267G) F267G (Oryza sativa ssp. japonica cv. Nipponbare) (UniProt Q69P58); assay: EMSA; details: 20 mM Hepes pH 7.5, 20 mM KCl2 (so in the source), 1 mM MgCl2, 10 mM ZnCl2, 5 mM DTT, 10% glycerol, 0.1% NP-40, room temperature, 1 h; 6% native PAGE, 0.5x TBE
T1 sequence: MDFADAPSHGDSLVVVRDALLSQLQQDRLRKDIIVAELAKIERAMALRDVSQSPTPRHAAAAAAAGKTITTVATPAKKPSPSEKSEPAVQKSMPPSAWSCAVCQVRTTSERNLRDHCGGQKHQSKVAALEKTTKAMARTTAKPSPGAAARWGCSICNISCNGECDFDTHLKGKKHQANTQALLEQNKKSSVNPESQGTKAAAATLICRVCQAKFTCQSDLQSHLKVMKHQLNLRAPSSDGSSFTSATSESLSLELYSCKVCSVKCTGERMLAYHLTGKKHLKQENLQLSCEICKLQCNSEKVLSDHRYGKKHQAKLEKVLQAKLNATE

[2] = biological target: T2, GST-DRG9Nip (N186S) N186S (Oryza sativa ssp. japonica cv. Nipponbare) (UniProt Q69P58); assay: EMSA; details: 20 mM Hepes pH 7.5, 20 mM KCl2 (so in the source), 1 mM MgCl2, 10 mM ZnCl2, 5 mM DTT, 10% glycerol, 0.1% NP-40, room temperature, 1 h; 6% native PAGE, 0.5x TBE
T2 sequence: T1 sequence with N186S, G267F

GGGCUCAAAUUAAUUAGCCAGUGAAAAAUCAAAUUACAGAGUUGCUUAAUUUUUUUACUAGUAGAACGCAACAGUAAAAAGAAUUAACAGCAGUGAAUUAUUAGUUAAUUAGCUAGGGAGUUGAAAUAGUUUAGCGGUCAUGCACUACUGAUUUUUAAUUAGUGCAGACAACGACCGCGUGUGUGUAUAUGCAUGUAUACCUUUUACUGUAUCUUCAGAUUGUGUAUAUAUAUCAUAUAUGUACAGGAAAAGAUUUAUAUAUCAUACAUAUUUUGUUGU [OsNCED4 3'-UTR RNA]
binding [1]: binds more weakly | binding [2]: binds
